One may read the EC50 as the concentration that produces a half-maximal response. High values mean weaker potency, low ones greater potency.

The target in experiment [1] is T1, human DR6 (Death Receptor-6, TNFRSF21) (human, UniProt O75509 42-655).
T1 sequence: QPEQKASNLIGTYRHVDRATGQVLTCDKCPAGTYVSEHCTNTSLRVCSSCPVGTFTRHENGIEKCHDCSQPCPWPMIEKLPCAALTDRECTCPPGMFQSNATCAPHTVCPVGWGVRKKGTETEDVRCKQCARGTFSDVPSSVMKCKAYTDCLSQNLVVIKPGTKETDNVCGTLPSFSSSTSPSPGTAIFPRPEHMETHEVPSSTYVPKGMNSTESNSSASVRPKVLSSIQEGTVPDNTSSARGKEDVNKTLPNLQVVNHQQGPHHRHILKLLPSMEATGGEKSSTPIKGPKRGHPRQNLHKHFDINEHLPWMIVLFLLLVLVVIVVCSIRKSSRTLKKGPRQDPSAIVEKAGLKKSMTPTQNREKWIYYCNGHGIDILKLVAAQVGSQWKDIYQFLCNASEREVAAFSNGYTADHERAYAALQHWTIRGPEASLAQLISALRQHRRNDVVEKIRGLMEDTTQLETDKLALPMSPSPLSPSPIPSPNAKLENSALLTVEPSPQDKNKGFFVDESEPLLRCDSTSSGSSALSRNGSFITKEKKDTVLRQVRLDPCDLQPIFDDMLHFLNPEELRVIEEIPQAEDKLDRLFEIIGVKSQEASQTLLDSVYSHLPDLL
Put plainly: cell-based or functional assay.

Experiment [2] addresses T1, human DR6 (Death Receptor-6, TNFRSF21). Put plainly: FACS direct binding on transiently transfected HEK293 cells. The procedure:
(§1) The apparent Kd of 5D10 and M53-E04 for rat and human DR6 was estimated using transiently transfected HEK293 cells in a FACS direct binding assay. Approximately 50,000 cells in 150 uL of PBS, 1% BSA, 0.1% NaN3 (FACS buffer) were analyzed. Cells were pelleted and resuspended in 150 uL of serial dilutions of the antibodies in FACS buffer. Samples were incubated for 1 hr on ice with occasional agitation and then washed 3 times. Bound antibodies were visualized with PE-labeled goat F(ab)2 anti-human or anti-mouse Fab specific antibody (Jackson Labs).
(§2) The binding affinities of 5D10 or M53-E04 to cyno monkey DR6 were similar to human DR6. A single point mutation (Y93A) was introduced to 5D10 based on the co-crystal structure of DR6-5D10 (FIG. 6).

The target of experiment [3] is T2, rat DR6 (rat, UniProt D3ZF92 42-655).
T2 construct: Full length rat DR6 expressed on transfected HEK293 cells
T2 sequence: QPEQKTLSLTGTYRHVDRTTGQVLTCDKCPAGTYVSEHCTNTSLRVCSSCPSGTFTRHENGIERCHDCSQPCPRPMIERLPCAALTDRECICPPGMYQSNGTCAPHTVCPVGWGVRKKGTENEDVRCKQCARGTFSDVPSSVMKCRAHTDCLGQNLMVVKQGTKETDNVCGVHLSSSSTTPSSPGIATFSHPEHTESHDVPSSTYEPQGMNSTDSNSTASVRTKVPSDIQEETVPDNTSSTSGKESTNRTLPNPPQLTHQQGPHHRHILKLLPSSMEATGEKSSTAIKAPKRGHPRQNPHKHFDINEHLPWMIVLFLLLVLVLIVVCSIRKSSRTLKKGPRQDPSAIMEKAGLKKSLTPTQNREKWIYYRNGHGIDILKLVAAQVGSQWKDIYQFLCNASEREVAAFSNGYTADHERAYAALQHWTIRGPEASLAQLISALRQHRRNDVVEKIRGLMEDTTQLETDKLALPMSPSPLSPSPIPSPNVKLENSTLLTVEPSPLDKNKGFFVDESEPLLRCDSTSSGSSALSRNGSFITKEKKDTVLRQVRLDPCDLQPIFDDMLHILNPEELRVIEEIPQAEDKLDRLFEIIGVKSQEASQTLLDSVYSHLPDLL
The description is as above. The procedure:
as §1, §2

A further experiment deals with T3, mouse DR6 (mouse, UniProt Q9EPU5 42-655).
T3 sequence: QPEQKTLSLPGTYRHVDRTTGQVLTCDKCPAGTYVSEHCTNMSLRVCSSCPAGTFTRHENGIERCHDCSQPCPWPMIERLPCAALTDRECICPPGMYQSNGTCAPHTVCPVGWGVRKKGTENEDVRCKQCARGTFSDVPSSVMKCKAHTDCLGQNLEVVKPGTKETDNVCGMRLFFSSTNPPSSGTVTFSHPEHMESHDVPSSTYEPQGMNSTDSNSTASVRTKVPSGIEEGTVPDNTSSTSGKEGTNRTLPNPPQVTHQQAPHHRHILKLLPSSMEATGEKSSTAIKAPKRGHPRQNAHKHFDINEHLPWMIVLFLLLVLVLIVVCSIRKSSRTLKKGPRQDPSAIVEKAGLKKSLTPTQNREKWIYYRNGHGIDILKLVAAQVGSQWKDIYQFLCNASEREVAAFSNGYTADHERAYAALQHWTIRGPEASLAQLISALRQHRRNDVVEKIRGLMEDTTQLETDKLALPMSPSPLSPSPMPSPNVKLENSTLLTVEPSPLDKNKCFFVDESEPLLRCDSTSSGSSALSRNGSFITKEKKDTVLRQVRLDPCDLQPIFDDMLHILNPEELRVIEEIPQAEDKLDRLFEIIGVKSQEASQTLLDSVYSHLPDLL
Put plainly: flow cytometry on HEK293 cells transfected with full length DR6. The procedure: Six million HEK293 cells were transfected with 10 ug of plasmid DNA, which encoded full length human, rat, or mouse DR6. Three days after transfection, approximately 50,000 cells in 200 μL of PBS, 1% BSA, 0.1% NaN3 (FACS buffer) were analyzed. Cells were pelleted and resuspended in 150 μL of serial dilutions of anti-DR6 antibodies in FACS buffer. Samples were incubated for 1 hour on ice with occasional agitation and then washed three times. Bound DR6 antibody was visualized with PE-labeled goat F(ab)₂ anti-human Fab (for Dyax Fabs) or anti-mouse IgG specific antibody (for monoclonal antibodies) (Jackson Labs). […] Although both antibodies bind to DR6, the EO4 antibody leads to cell death, whereas 5D10 promotes cell survival. FIG. 5B.
(In general: In flow cytometry, cells or beads pass a laser one at a time.)

The target in experiment [4] is T2, rat DR6. Put plainly: binding to rat DR6 (FIG. 6).

B1: 1P5D10.2 (antibody, V domains shown)
VH: EVQLVESGGGLVKPGGSLKLSCAASGFTFSDYYMYWVRQTPEKRLEWVATISDGGLYTYYQDSVKGRFTISRDNAKNNLYLQMSSLKSEDTAMYYCAREDDYDGDFYTMDYWGQGTSVTVSS
VL: QIVLTQSPAIMSASPGEKVTITCSASSSVSYMHWFQQKPGTSPKLWIYSTSNLASGVPARFSGSGSGTSYSLTISRMEAEDAATYYCQQRSSYPLTFGAGTKLELK
notes: Murine monoclonal antibody from a hybridoma; also called DR6 antagonist monoclonal antibody 5D10; anti-DR6 antibody 5D10
As for B1, in experiment [1], the “motor neuron survival following sodium arsenite treatment (cell number)” value is 3 fold. The EC50 in experiment [2] is 100 pM; with rat DR6 [3], 60000 pM. Besides, the binding result in the experiment with mouse DR6 was “binds”.

B2: 1P5D10.2(Y93A) (antibody, V domains shown)
VH: EVQLVESGGGLVKPGGSLKLSCAASGFTFSDYYMYWVRQTPEKRLEWVATISDGGLYTYYQDSVKGRFTISRDNAKNNLYLQMSSLKSEDTAMYYCAREDDYDGDFYTMDYWGQGTSVTVSS
VL: QIVLTQSPAIMSASPGEKVTITCSASSSVSYMHWFQQKPGTSPKLWIYSTSNLASGVPARFSGSGSGTSYSLTISRMEAEDAATYYCQQRSSAPLTFGAGTKLELK
notes: Single point mutant (Y93A, light chain variable domain) of 5D10; also called 5D10Y93A
As for B2, the binding result with rat DR6 [4] was “binds”.

B3: M53-E04 (Fab, V domains shown)
VH: EVQLLESGGGLVQPGGSLRLSCAASGFTFSNYEMSWVRQAPGKGLEWVSSIYSSGGETLYADSVKGRFTISRDNSKNTLYLQMNSLRAEDTAVYYCARDGAADYWGQGTLVTVSS
VL: QSELTQPPSASGTPGQWVTISCSGSTSNIGNNYVYWYQQLPGTAPKLLIYTNNQRPSGVPDRFSGSKSGTSASLAISGLRSEDEADYYCATWDDSLYAPVFGGGTKVTVL
notes: The format in the assay (Fab or full IgG) is therefore not certain; also called EO4 antibody; E04 mAb
Take B3: the results for the EC50 (in experiment [2]; with rat DR6 [3]) were 50 pM and 100 pM, respectively. Further, in the experiment with mouse DR6, the binding result is on record as “binds”.
